B1: tFA8-14: truncated (6S)-FA specific RNA aptamer, SEQ ID NO: 25 (nucleic acid)
chain: CCGCGCAAGUGCAUUAACGGUGACACCGAAAGCUGGAAAGCCUGACAUCGAACGCAAAAGGCUGCGUGG
modifications: unmodified RNA
B2: miRNA switch: folinic acid-responsive miRNA switch with aptamer FA8-3 that targets GFP, SEQ ID NO: 57 (nucleic acid)
chain: AATAACCGGTGCGATCGCGAACGGGTCCTCACTACCCCTCGAAATCACGAGGGAGACGAGATAAGAGCGACGGCGGAGCGAGCACAAGCTGGAGTACAACTATAGTGAAGCCACAGATGTATAGTTGTACTCCAGCTTGTGCCCGCCTTGCCAACCATAACGTCTGGTCACGACCGTAGTAAGGGCCCGTTTTTAATTAAATCGATTATT
modifications: Synthetic nucleic acid
B3: tFA8-3: truncated (6R)-FA specific RNA aptamer, SEQ ID NO: 19 (nucleic acid)
chain: UUUGCCAACGUCUGGUCACGACCGUAGUACACUACCCCUCGAAAUCACGAGGGAGACGAGAUAGGCGGA
modifications: unmodified RNA

Assays:
[1] = SPR screen of truncated or mutated aptamers for folinic acid binding (qualitative)
Protocol: Full length sequences were amplified off of sequencing PCR products using primers N70-fwd-short and Biacore-N70-rev to append a poly(A) tail. Truncated or mutated sequences were synthesized by Integrated DNA Technologies or the Protein and Nucleic Acid facility (Stanford, Calif.).
(§1) Surface plasmon resonance characterization of aptamer binding properties. Nucleic acid aptamer preparation. RNA aptamers were prepared by PCR amplification of DNA template sequences (Table 4, Integrated DNA Technologies, Coralville, Iowa) using forward and reverse primers Biacore-fwd and Biacore-rev, respectively, followed by transcription of the PCR product using the MEGAshortscript T7 transcription kit (Life Technologies) and purification of the transcription product using the RNA Clean & Concentrator kit (Zymo Research, Irvine, Calif.), according to the manufacturers' instructions. Aptamers were resuspended in selection buffer, denatured at 65° C. for 5 min, and cooled to room temperature directly before use.
Sensor chip surface generation. Experiments were performed on a Biacore X100 instrument (GE Healthcare) at 25° C. A CM5 sensor chip (GE Healthcare) was equilibrated with HBS-N buffer. The DNA linker strand (5′-AmMC6-[…]) (Integrated DNA Technologies) (SEQ ID NO:133), with an amino modified 6-carbon linker on the 5′ end, was immobilized to the chip surface. […]

[2] = Surface plasmon resonance aptamer binding assay, (6S)-folinic acid; conditions: SPR, 25° C., selection buffer pH 7.4, 5 mM MgCl2
Protocol: as §1
(§2) Sensor chip surface generation. Experiments were performed on a Biacore X100 instrument (GE Healthcare) at 25° C. A CM5 sensor chip (GE Healthcare) was equilibrated with HBS-N buffer. The DNA linker strand (5′-AmMC6-[…]) (Integrated DNA Technologies) (SEQ ID NO:133), with an amino modified 6-carbon linker on the 5′ end, was immobilized to the chip surface. The carboxymethylated dextran surface of the CM5 chip was activated for 7 min at a flow rate of 10 μL/min using a 1:1 volume ratio of 0.4 M 1-ethyl-3-(3-dimethylaminopropyl) carbodiimide (GE Healthcare) and 0.1 M N-hydroxysuccinimide (GE Healthcare). A molar ratio of 1:30 of DNA strand to hexadecyltrimethylammonium bromide (Sigma-Aldrich, St. Louis, Mo.) was diluted in 10 mM HEPES buffer (Sigma-Aldrich) to a final concentration of 20 μM and 0.6 mM, respectively, and injected over the activated surface for 10 min at a flow rate of 5 μL/min. Excess activated groups were blocked by an injection of 1 M ethanolamine (GE Healthcare), pH 8.5, for 7 min at a flow rate of 10 μL/min. The immobilization reaction was performed sequentially on both flow cells (FC1, FC2) and yielded approximately 4,000 RU of the DNA strand.
(§3) Aptamer binding assay. The Biacore X100 instrument was primed three times with running buffer prior to all binding assays. For each assay, three startup cycles were performed to stabilize the sensorgram baseline. For each startup cycle, the aptamer (˜40-70 ng/μL, ˜3 μM) was captured onto the sample flow cell (FC2) for 40 s at a flow rate of 5 μL/min. 25 mM NaOH (GE Healthcare) was injected for 30 s at a flow rate of 30 μL/min over both flow cells to regenerate the sensor surface. A dilution series of (6R)- or (6S)-folinic acid (Schircks Laboratories, Jona, Switzerland) was prepared in selection buffer and filtered through a 0.2 μm membrane (Pall Corporation, Port Washington, N.Y.). For each concentration sample, the aptamer was captured onto the sample flow cell (FC2) for 40 s at a flow rate of 5 μL/min, the folinic acid solution was injected over both flow cells at a flow rate of 30 μL/min to monitor target association, and selection buffer was injected over both flow cells at a flow rate of 30 μL/min to monitor target dissociation. Association and dissociation phase lengths used were chosen based on time needed to reach equilibrium. Aptamer and folinic acid were removed from the sensor surface by injecting 25 mM NaOH for 30 s at a flow rate of 30 μL/min over both flow cells.
(§4) Data processing and analysis were performed using Biacore X100 Evaluation Software version 2.0 (GE Healthcare). A double-referencing method was performed to process all datasets. Data from the sample flow cell (FC2) were referenced first by subtracting data from the reference flow cell (FC1) to correct for bulk refractive index changes, nonspecific binding, injection noise, matrix effects, and baseline drift. Reference-subtracted data (FC2−FC1) were double-referenced with a blank injection of running buffer to account for any systematic drift over the course of the injection. Double-referenced data were fit to a 1:1 binding model for kinetic analysis or steady-state affinity model for thermodynamic analysis. […]

[3] = Surface plasmon resonance aptamer binding assay, (6R)-folinic acid; conditions: for Selectivity: between (6R)- and (6S)-folinic acid diastereomers
Protocol: as §1, §2, §3, §4

GFP expression = test: miRNA switch silencing activity on GFP in mammalian cells; format: cell-based; conditions: folinic acid
From the text: Ligand-responsive, microRNA (miRNA) switches have been developed that modulate Drosha processing. These switches integrate an aptamer into the basal segments of a miRNA. Internal loop size contained within the basal segments affects Drosha processing and therefore the levels of miRNA-mediated gene silencing. By integrating an aptamer within the basal segments, unbound aptamer can remain relatively unstructured, while ligand binding can sequester nucleotides involved in binding and inhibit Drosha processing.
Aptamer integration into this switch platform requires two integration stems; therefore, aptamer FA8-3 was chosen. Separate studies on using this aptamer in a transmitter-based switch observe that an internal loop within the aptamer could be expanded while retaining ligand binding ability. This loop was expanded to the previously identified optimal loop size and integrated into the miRNA switch that targets GFP. A single copy of the miRNA switch enables up to 2.1-fold change in GFP expression (FIG. 26b); including two copies yields up to 2.6-fold change (FIG. 26c). Additional copies of the switch would be expected to further increase the achievable activation ratio, as would specific use of (6R)-folinic acid.

[4] = SPR binding to (6R,S)-5-formyl-5,6,7,8-tetrahydropteroic acid; conditions: ligand is mixture of (6R) and (6S) diastereomers
[5] = SPR binding to (6R,S)-5-methyl-5,6,7,8-tetrahydrofolic acid; conditions: ligand is mixture of (6R) and (6S) diastereomers, read-out: KD, (6R,S)-5-methyl-THF
[6] = SPR equilibrium binding to folate derivative (6R)-tetrahydrobiopterin; conditions: N.D. = non-detectable levels of binding, read-out: KD, (6R)-Tetrahydrobiopterin (THB)
[7] = SPR, 25° C., selection buffer pH 7.4, 5 mM MgCl2
[8] = SPR, 1:1 binding model, 25° C., selection buffer pH 7.4, 5 mM MgCl2

Molecule	folinic acid binding (qualitative) [1]	ka, (6S)-Folinic Acid ([2]; 1:1 binding model)	kd, (6S)-Folinic Acid ([2]; 1:1 binding model)	Kd [2]	Kd [3, 7]	Selectivity [3]	change in GFP expression (GFP expression; single copy of the miRNA switch)	change in GFP expression (GFP expression; two copies of the miRNA switch)	ka, (6R,S)-5-formyl-THPteroic Acid [4]	kd, (6R,S)-5-formyl-THPteroic Acid [4]	Kd ([4]; read-out: KD, (6R,S)-5-formyl-THPteroic Acid)	ka, (6R)-Folinic Acid [3, 8]	kd, (6R)-Folinic Acid [3, 8]	Kd [5]	Kd [6]
B1	maintains binding	89200 M⁻¹ s⁻¹	0.0128 s⁻¹	0.144 µM	10200 µM	71,100	–	–	–	–	–	–	–	–	–
B2	–	–	–	–	–	–	up to 2.1 fold	up to 2.6 fold	–	–	–	–	–	–	–
B3	–	–	–	28.6 µM	0.0473 µM	606	–	–	305000 M⁻¹ s⁻¹	0.0292 s⁻¹	0.0957 µM	459000 M⁻¹ s⁻¹	0.0217 s⁻¹	0.158 µM	1.6 µM
